# T1: SHEL (synthetic human elastin; recombinant human tropoelastin splice form)
# T1 chain: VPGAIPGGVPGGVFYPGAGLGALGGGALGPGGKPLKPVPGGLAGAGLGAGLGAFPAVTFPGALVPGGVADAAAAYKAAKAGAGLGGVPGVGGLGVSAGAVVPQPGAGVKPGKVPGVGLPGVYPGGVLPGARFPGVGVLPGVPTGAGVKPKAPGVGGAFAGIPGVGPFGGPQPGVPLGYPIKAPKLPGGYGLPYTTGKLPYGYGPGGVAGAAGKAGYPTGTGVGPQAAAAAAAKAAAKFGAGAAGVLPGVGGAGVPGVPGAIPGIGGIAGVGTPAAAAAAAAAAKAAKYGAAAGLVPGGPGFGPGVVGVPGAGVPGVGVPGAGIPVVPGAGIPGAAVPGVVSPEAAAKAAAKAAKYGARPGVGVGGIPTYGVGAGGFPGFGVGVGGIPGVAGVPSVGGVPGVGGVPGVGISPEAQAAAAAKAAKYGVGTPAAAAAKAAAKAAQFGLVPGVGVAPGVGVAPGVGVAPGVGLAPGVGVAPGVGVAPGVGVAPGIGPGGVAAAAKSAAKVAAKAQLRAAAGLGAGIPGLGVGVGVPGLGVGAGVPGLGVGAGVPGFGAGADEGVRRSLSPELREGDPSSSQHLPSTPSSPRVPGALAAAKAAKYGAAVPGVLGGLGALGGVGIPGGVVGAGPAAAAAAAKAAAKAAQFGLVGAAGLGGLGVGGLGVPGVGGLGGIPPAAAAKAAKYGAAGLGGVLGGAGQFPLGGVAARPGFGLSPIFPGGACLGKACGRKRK
# T2: serine protease site peptide (SPS-peptide), N-…-C
# T2 chain: KAQLRAAAGLGAGI
# T3: SHELδ26A (SHEL lacking the sequence of exon 26A)
# T3 chain: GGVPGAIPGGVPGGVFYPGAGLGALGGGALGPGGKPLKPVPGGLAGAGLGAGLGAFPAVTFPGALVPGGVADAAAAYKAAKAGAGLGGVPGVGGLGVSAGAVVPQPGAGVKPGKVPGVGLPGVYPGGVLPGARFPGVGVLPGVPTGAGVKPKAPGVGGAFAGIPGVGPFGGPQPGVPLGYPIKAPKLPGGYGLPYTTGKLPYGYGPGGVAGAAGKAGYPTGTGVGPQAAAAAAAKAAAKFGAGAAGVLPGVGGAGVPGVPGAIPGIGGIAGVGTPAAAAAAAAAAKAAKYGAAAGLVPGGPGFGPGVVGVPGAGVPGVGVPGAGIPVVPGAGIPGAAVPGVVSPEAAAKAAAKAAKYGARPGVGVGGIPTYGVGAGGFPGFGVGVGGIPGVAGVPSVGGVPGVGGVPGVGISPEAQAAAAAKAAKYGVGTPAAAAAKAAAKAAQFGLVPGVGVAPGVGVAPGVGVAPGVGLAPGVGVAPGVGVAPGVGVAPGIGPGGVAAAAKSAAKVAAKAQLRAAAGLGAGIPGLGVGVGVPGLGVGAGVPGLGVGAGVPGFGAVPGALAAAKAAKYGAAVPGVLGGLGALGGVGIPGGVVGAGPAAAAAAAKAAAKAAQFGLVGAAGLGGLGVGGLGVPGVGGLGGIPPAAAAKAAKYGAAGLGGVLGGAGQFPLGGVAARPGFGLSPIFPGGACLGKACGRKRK
# B1: human plasmin (Sigma) (protein)
# chain: KVYLSECKTGNGKNYRGTMSKTKNGITCQKWSSTSPHRPRFSPATHPSEGLEENYCRNPDNDPQGPWCYTTDPEKRYDYCDILECEEECMHCSGENYDGKISKTMSGLECQAWDSQSPHAHGYIPSKFPNKNLKKNYCRNPDRELRPWCFTTDPNKRWELCDIPRCTTPPPSSGPTYQCLKGTGENYRGNVAVTVSGHTCQHWSAQTPHTHNRTPENFPCKNLDENYCRNPDGKRAPWCHTTNSQVRWEYCKIPSCDSSPVSTEQLAPTAPPELTPVVQDCYHGDGQSYRGTSSTTTTGKKCQSWSSMTPHRHQKTPENYPNAGLTMNYCRNPDADKGPWCFTTDPSVRWEYCNLKKCSGTEASVVAPPPVVLLPDVETPSEEDCMFGNGKGYRGKRATTVTGTPCQDWAAQEPHRHSIFTPETNPRAGLEKNYCRNPDGDVGGPWCYTTNPRKLYDYCDVPQCAAPSFDCGKPQVEPKKCPGRVVGGCVAHPHSWPWQVSLRTRFGMHFCGGTLISPEWVLTAAHCLEKSPRPSSYKVILGAHQEVNLEPHVQEIEVSRLFLEPTRKDIALLKLSSPAVITDKVIPACLPSPNYVVADRTECFITGWGETQGTFGAGLLKEAQLPVIENKVCNRYEFLNGRVQSTELCAGHLAGGTDSCQGDSGGPLVCFEKDKYILQGVTSWGLGCARPNKPGVYVRVSRFVTWIEGVMRNN
# B2: Gelatinase A (72 kDa gelatinase) (protein)
# chain: YNFFPRKPKWDKNQITYRIIGYTPDLDPETVDDAFARAFQVWSDVTPLRFSRIHDGEADIMINFGRWEHGDGYPFDGKDGLLAHAFAPGTGVGGDSHFDDDELWTLGEGQVVRVKYGNADGEYCKFPFLFNGKEYNSCTDTGRSDGFLWCSTTYNFEKDGKYGFCPHEALFTMGGNAEGQPCKFPFRFQGTSYDSCTTEGRTDGYRWCGTTEDYDRDKKYGFCPETAMSTVGGNSEGAPCVFPFTFLGNKYESCTSAGRSDGKMWCATTANYDDDRKWGFCPDQGYSLFLVAAHEFGHAMGLEHSQDPGALMAPIYTYTKNFRLSQDDIKGIQELYGASPDIDLGTGPTPTLGPVTPEICKQDIVFDGIAQIRGEIFFFKDRFIWRTVTPRDKPMGPLLVATFWPELPEKIDAVYEAPQEEKAVFFAGNEYWIYSASTLERGYPKPLTSLGLPPDVQRVDAAFNWSKNKKTYIFAGDKFWRYNEVKKKMDPGFPKLIADAWNAIPDNLDAVVDLQGGGHSYFFKGAYYLKLENQSLKSVKFGSIKSDWLGC
# B3: human leukocyte elastase (HLE) (Sigma) (protein)
# chain: IVGGRRARPHAWPFMVSLQLRGGHFCGATLIAPNFVMSAAHCVANVNVRAVRVVLGAHNLSRREPTRQVFAVQRIFENGYDPVNLLNDIVILQLNGSATINANVQVAQLPAQGRRLGNGVQCLAMGWGLLGRNRGIASVLQELNVTVVTSLCRRSNVCTLVRGRQAGVCFGDSGSPLVCNGLIHGIASFVRGGCASGLYPDAFAPVAQFVNWIDSIIQ
# B4: Gelatinase B (92 kDa gelatinase) (protein)
# chain: MRTPRCGVPDLGRFQTFEGDLKWHHHNITYWIQNYSEDLPRAVIDDAFARAFALWSAVTPLTFTRVYSRDADIVIQFGVAEHGDGYPFDGKDGLLAHAFPPGPGIQGDAHFDDDELWSLGKGVVVPTRFGNADGAACHFPFIFEGRSYSACTTDGRSDGLPWCSTTANYDTDDRFGFCPSERLYTQDGNADGKPCQFPFIFQGQSYSACTTDGRSDGYRWCATTANYDRDKLFGFCPTRADSTVMGGNSAGELCVFPFTFLGKEYSTCTSEGRGDGRLWCATTSNFDSDKKWGFCPDQGYSLFLVAAHEFGHALGLDHSSVPEALMYPMYRFTEGPPLHKDDVNGIRHLYGPRPEPEPRPPTTTTPQPTAPPTVCPTGPPTVHPSERPTAGPTGPPSAGPTGPPTAGPSTATTVPLSPVDDACNVNIFDAIAEIGNQLYLFKDGKYWRFSEGRGSRPQGPFLIADKWPALPRKLDSVFEERLSKKLFFFSGRQVWVYTGASVLGPRRLDKLGLGADVAQVTGALRSGRGKMLLFSGRRLWRFDVKAQMVDPRSASEVDRMFPGVPLDTHDVFQYREKAYFCQDRFYWRVSSRSELNQVDQVGYVTYDILQCPED
# Columns and labels:
# [1] = biological target: T1, SHEL (synthetic human elastin; …)
# [2] = biological target: T2, serine protease site peptide …
# [3] = biological target: T3, SHELδ26A (SHEL lacking the sequence of …)
protein,measurement,setting,value
B1,"degradation of SHEL by human plasmin, SDS-PAGE",[1],"Major bands could be isolated using low concentration plasmin at 55, 45, 40, 34, 28, 22 and 18 kDa"
same,"amount of full-length SHEL after plasmin digestion with a 100:1 molar excess of SPS-peptide, SDS-PAGE and densitometry (also seen with SHELδ26A, not shown)",[2],"more full-length SHEL was evident compared with controls using trypsin, plasmin, kallikrein and serum"
B2,"digestion of SHEL by APMA-treated gelatinase A, SDS-PAGE",[1],Digestion with gelatinase A and gelatinase B (each previously treated with APMA) of SHEL revealed SDS-PAGE patterns of preferentially digested fragments
B3,"degradation of SHEL by human leukocyte elastase, SDS-PAGE",[1],numerous fragments were seen with two prominent fragments at 32 and 18 kDa
same,"degradation of SHELδ26A by human leukocyte elastase, SDS-PAGE",[3],SHELδ26A produced a similar profile but with a series of fragments appearing 4 kDa smaller
same,"amount of full-length SHEL after HLE digestion with SPS-peptide, SDS-PAGE and densitometry",[2],SPS-peptide also resulted in more full-length SHEL using thrombin and HLE but to a lesser extent
B4,"digestion of SHEL by APMA-treated gelatinase B, SDS-PAGE",[1],Digestion with gelatinase A and gelatinase B (each previously treated with APMA) of SHEL revealed SDS-PAGE patterns of preferentially digested fragments
